Results reported in publication PMC4038516, “Crystal Structure of Penicillin-Binding Protein 3 (PBP3) from Escherichia coli” (PLoS ONE, 2014).

B1: PBP3_(88–165), Val88-Ser165 subdomain of Escherichia coli PBP3, strep-tag removed (domain or fragment, UniProt P0AD68 88-165, looked up)
chain: VKAIWADPKEVHDAGGISVGDRWKALANALNIPLDQLSARINANPKGRFIYLARQVNPDMADYIKKLKLPGIHLREES
notes: The tag is said to be removed before crystallization; Residues of the vector may remain at the N-terminus after the tag was removed; A selenomethionine form was used for phasing only; also called PBP3 Val88-Ser165 subdomain; source: E. coli C41(DE3) with pDML2042 (pET-52b(+)), purified (Strep-Tactin column), strep-tag removed; not shown: Strep-tag, N-terminal, cleaved
B2: PBP3_(57–577), soluble periplasmic form of Escherichia coli penicillin-binding protein 3 (domain or fragment, UniProt P0AD68 57-577, looked up)
chain: GDMRSLRVQQVSTSRGMITDRSGRPLAVSVPVKAIWADPKEVHDAGGISVGDRWKALANALNIPLDQLSARINANPKGRFIYLARQVNPDMADYIKKLKLPGIHLREESRRYYPSGEVTAHLIGFTNVDSQGIEGVEKSFDKWLTGQPGERIVRKDRYGRVIEDISSTDSQAAHNLALSIDERLQALVYRELNNAVAFNKAESGSAVLVDVNTGEVLAMANSPSYNPNNLSGTPKEAMRNRTITDVFEPGSTVKPMVVMTALQRGVVRENSVLNTIPYRINGHEIKDVARYSELTLTGVLQKSSNVGVSKLALAMPSSALVDTYSRFGLGKATNLGLVGERSGLYPQKQRWSDIERATFSFGYGLMVTPLQLARVYATIGSYGIYRPLSITKVDPPVPGERVFPESIVRTVVHMMESVALPGGGGVKAAIKGYRIAIKTGTAKKVGPDGRYINKYIAYTAGVAPASQPRFALVVVINDPQAGKYYGGAVSAPVFGAIMGGVLRTMNIEPDALTTGDKNEFV
notes: the ftsI gene encodes 588 residues and 11 C-terminal residues are removed by proteolytic cleavage; No tag is mentioned; also called FtsI; periplasmic domain of PBP3; source: E. coli W3110M (plasmid pDML232, with pDML237 for SecB), purified (S-Sepharose twice, Superdex 200)

Experiments:
[1] = target: the molecule itself; assay: dynamic light scattering + other: static light scattering; PBP3_(88–165), batch mode, 20°C, buffer and concentration as for crystallogenesis (7.5 mg/ml, 0.15 M NaCl, 0.1 M Tris pH 8, 1 mM EDTA)
[2] = target: the molecule itself; assay: dynamic light scattering + other: static light scattering; PBP3_(57–577), batch mode, 20°C, buffer and concentration as for crystallogenesis (18 mg/ml, 0.5 M NaCl, 20 mM Tris pH 8)

Protein | stoichiometry N [1] | stoichiometry N [2]
B1 | 2 | –
B2 | – | 2
